{
  "source": "paper PMC9529153",
  "key": {"[1]": {"target": "Actinobacteria bacterium IMCC26103 heliorhodopsin (AbHeR) wild type (Actinobacteria bacterium IMCC26103)", "sequence (main, as listed by the source)": "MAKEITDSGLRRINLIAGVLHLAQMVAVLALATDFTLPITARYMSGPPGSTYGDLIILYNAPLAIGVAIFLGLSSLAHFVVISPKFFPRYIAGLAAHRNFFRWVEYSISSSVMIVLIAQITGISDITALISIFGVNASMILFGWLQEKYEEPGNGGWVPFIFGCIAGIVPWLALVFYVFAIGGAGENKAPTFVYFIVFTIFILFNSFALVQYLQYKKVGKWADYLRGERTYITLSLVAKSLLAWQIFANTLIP"}, "[2]": {"target": "AbHeR K216Q (Actinobacteria bacterium IMCC26103)"}, "[3]": {"target": "Actinobacteria bacterium IMCC26103 heliorhodopsin (AbHeR) wild type (Actinobacteria bacterium IMCC26103)", "assay": "ITC; purified AbGS with AbHeR in inverted membrane vesicles (IMV) of E. coli C43 (DE3), no detergent; text: IMVs injected into AbGS, legend: AbGS added to IMVs; in the absence of light"}, "[4]": {"target": "AbHeR E151Q (Actinobacteria bacterium IMCC26103)", "assay": "ITC; AbGS injected into purified AbHeR (WT or mutant) at 25°C, MicroCal ITC200; both in buffer SD (150 mM NaCl, 50 mM Tris-HCl pH 7.0, 0.02% DDM); in the absence of light"}, "[5]": {"target": "Actinobacteria bacterium IMCC26103 heliorhodopsin (AbHeR) wild type (Actinobacteria bacterium IMCC26103)", "assay": "ITC; AbGS injected into purified AbHeR (WT or mutant) at 25°C, MicroCal ITC200; both in buffer SD (150 mM NaCl, 50 mM Tris-HCl pH 7.0, 0.02% DDM); in the absence of light"}, "[6]": {"target": "AbHeR K216Q (Actinobacteria bacterium IMCC26103)", "assay": "ITC; AbGS injected into purified AbHeR (WT or mutant) at 25°C, MicroCal ITC200; both in buffer SD (150 mM NaCl, 50 mM Tris-HCl pH 7.0, 0.02% DDM); in the absence of light"}, "[7]": {"target": "AbHeR D223N (Actinobacteria bacterium IMCC26103)", "assay": "ITC; AbGS injected into purified AbHeR (WT or mutant) at 25°C, MicroCal ITC200; both in buffer SD (150 mM NaCl, 50 mM Tris-HCl pH 7.0, 0.02% DDM); in the absence of light"}, "[8]": {"target": "AbHeR K148Q (Actinobacteria bacterium IMCC26103)", "assay": "ITC; AbGS injected into purified AbHeR (WT or mutant) at 25°C, MicroCal ITC200; both in buffer SD (150 mM NaCl, 50 mM Tris-HCl pH 7.0, 0.02% DDM); in the absence of light"}, "[9]": {"target": "Actinobacteria bacterium IMCC26103 heliorhodopsin (AbHeR) wild type (Actinobacteria bacterium IMCC26103)", "remark": "listed apart in the source"}, "Glu105": {"test_system": "Glu105", "assay": "UV-vis", "conditions": "Not stated for the titration. The purification buffer SD contains 150 mM NaCl., Not stated for the titration. The purified protein was in buffer SD: 150 mM NaCl, 50 mM Tris-HCl pH 7.0, 0.02% DDM. The protocol is referred to ref 8., detergent-solubilised, retinal-bound AbHeR WT. Light adaptation is not stated."}},
  "data": [
    {"substance": "Actinobacteria bacterium IMCC26103 glutamine synthetase (AbGS) (enzyme)", "values": [
      {"measurement": "kcat/Km of AbGS (Glu, Mn2+-supported biosynthetic reaction, 37°C) with AbHeR WT IMV, dark; AbGS alone 5.42", "setting": "[1]", "result": 8.01, "unit": "M⁻¹ s⁻¹"},
      {"measurement": "kcat/Km of AbGS (Glu, Mn2+-supported biosynthetic reaction, 37°C) with AbHeR WT IMV, light (532 nm); AbGS alone 5.42", "setting": "[1]", "result": 12.2, "unit": "M⁻¹ s⁻¹"},
      {"measurement": "kcat/Km of AbGS (Glu, Mn2+-supported biosynthetic reaction, 37°C) with AbHeR K216Q IMV, dark; AbGS alone 5.42", "setting": "[2]", "result": 5.45, "unit": "M⁻¹ s⁻¹"},
      {"measurement": "kcat/Km of AbGS (Glu, Mn2+-supported biosynthetic reaction, 37°C) with AbHeR K216Q IMV, light (532 nm); AbGS alone 5.42", "setting": "[2]", "result": 6.91, "unit": "M⁻¹ s⁻¹"},
      {"measurement": "Kd", "setting": "[3]", "result": 6.06, "unit": "µM"},
      {"measurement": "Kd", "setting": "[4]", "result": 30, "unit": "µM"},
      {"measurement": "dH", "setting": "[4]", "result": 2.36, "unit": "kcal/mol"},
      {"measurement": "Kd", "setting": "[5]", "result": 100, "unit": "µM"},
      {"measurement": "dH", "setting": "[5]", "result": 2.07, "unit": "kcal/mol"},
      {"measurement": "Kd", "setting": "[6]", "result": 3680, "unit": "µM"},
      {"measurement": "Kd", "setting": "[7]", "result": 44, "unit": "µM"},
      {"measurement": "dH", "setting": "[7]", "result": 1.14, "unit": "kcal/mol"},
      {"measurement": "Kd", "setting": "[8]", "result": 137, "unit": "µM"},
      {"measurement": "dH", "setting": "[8]", "result": 5.31, "unit": "kcal/mol"},
      {"measurement": "amount of product (Pi) of the AbGS biosynthetic reaction with AbHeR WT IMV at 150 min, in the absence of light, against AbHeR K216Q IMV", "setting": "[9]", "result": 1.09, "unit": "times"},
      {"measurement": "amount of product (Pi) of the AbGS biosynthetic reaction with AbHeR WT IMV at 150 min, in the presence of light against the absence of light", "setting": "[9]", "result": 1.1, "unit": "times"},
      {"measurement": "amount of product (Pi) of the AbGS biosynthetic reaction with AbHeR WT IMV at 150 min, in the presence of light, against AbHeR K216Q IMV", "setting": "[9]", "result": 1.2, "unit": "times"}
    ]},
    {"substance": "Heliorhodopsin AbHeR (Actinobacteria bacterium IMCC26103)", "values": [
      {"measurement": "pKa", "setting": "Glu105", "result": "2.84 (± 1.07)"}
    ]}
  ]
}
